How the values were obtained:
[1] = biological target: T1, human IL-23 (IL-23-His-Biotin) (human, UniProt Q9NPF7 20-189; P29460 23-328, biotin label, site not stated); assay: FACS competition, IL23-His-Biotin (4 µg/mL mixed 1:1) on 293T-IL-12Rβ1&IL-23R cells
T1 construct: Akesobio lot 20161209; His-tagged and biotinylated
T1 sequence (looked up) 1: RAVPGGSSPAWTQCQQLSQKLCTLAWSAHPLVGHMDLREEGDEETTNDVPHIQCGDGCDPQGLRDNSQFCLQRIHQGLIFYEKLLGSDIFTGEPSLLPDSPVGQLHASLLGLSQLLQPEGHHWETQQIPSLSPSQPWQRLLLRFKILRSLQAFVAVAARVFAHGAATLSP
T1 sequence (looked up) 2: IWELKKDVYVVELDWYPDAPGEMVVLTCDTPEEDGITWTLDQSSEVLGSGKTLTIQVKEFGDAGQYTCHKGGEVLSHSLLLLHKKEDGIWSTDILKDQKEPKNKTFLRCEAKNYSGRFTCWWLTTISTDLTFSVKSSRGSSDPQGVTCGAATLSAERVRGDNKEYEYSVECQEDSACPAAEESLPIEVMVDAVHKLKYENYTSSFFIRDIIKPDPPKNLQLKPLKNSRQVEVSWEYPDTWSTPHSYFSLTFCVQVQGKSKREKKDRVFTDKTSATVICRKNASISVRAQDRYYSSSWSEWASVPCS
Procedure: 200 μL of 1% PBSA was added into each sample, and the mixture was centrifuged at 1200 rpm for 5 min to discard the supernatant. According to experiment design, correspondingly diluted antibody (highest concentration of 60 μg/mL, 3-fold dilution, 8 concentrations in total) and human IL23-His-Biotin (Akeso Biopharma, Inc., Lot. No.: 20161209) (4 μg/mL) were mixed at a ratio of 1:1, and a blank control was set. The mixture of antibody and IL23-His-Biotin was incubated on ice for 30 min and then added to the cell precipitate at 100 μL/sample. The resulting mixture was well mixed and incubated on ice for 60 min. 200 μL of 1% PBSA was added, and the mixture was centrifuged at 1200 rpm for 5 min to discard the supernatant, and then washed twice. FITC Steptavidin (Biolegend, Cat. No.: 405202) was diluted at a ratio of 1:500 and added to each tube at 100 μL. The mixture was well mixed and incubated on ice for 40 min in the absence of light. 200 μL of 1% PBSA was added, and the mixture was centrifuged at 1200 rpm for 5 min to discard the supernatant, and then washed twice. 1% PBSA was added at 200 μL/tube, and the cells were resuspended and transferred to a flow cytometry tube for testing.

[2] = biological target: T2, human p40-His (human, UniProt P29460 23-328); assay: indirect ELISA, p40-His coat 0.25 µg/mL
T2 construct: Made by Akeso Biopharma; construct limits and tag not described; also called human IL-12/IL-23 p40 protein domain; human IL-12/IL-23 p40; not shown: His tag
T2 sequence (looked up): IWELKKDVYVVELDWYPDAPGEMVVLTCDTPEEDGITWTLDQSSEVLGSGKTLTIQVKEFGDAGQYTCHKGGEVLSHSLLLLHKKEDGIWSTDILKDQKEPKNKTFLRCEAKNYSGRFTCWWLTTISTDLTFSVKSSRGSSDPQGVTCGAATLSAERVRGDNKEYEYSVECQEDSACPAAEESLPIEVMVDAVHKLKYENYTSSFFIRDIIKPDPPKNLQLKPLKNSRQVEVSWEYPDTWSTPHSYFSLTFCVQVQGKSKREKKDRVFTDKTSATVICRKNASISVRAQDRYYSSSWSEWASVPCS
Procedure: A microplate was coated with human p40-His (Akeso Biopharma, Inc.; gene of p40: GeneBank NM002187). After incubation at 4° C. for no less than 12 h, the plate was washed with PBST, patted dry and blocked with a solution of 1% BSA in PBS. After blocking was completed, the plate was washed with PBST and patted dry. The antibody diluted with PBST solution in gradient was added into the wells of the plate, and the antibody dilution gradient is detailed in Table 1. The plate containing the test antibody was incubated at 37° C. for 30 min and then washed with PBST and patted dry. […] TMB (Neogen, 308177) was added for color developing for 5 min in the absence of light, and then stop solution was added to terminate the chromogenic reaction. Then the plate was put into a plate reader immediately, and the OD value of each well in the plate was read at 450 nm. The data were analyzed by SoftMax Pro 6.2.1.
The binding EC₅₀ of antibody was calculated by curve fitting using antibody concentration as the abscissa and absorbance value as the ordinate, and the results are shown in Table 4 below.

[3] = biological target: T2, human p40-His; assay: BLI (Fortebio), p40-His on HIS1K sensor, antibody 5-0.31 nM, 37 °C, 1:1 fit
Procedure: The sample dilution buffer for H5L9, H5L10, H5L11, H5L12, H5L14, H8L15, Ab123FR1 and ustekinumab was PBS (0.02% Tween-20, 0.1% BSA, pH 7.4). p40-His was immobilized on a HIS1K (manufacturer: Fortebio, Cat. No.: 18-5120) sensor at a concentration of 1 μg/mL for 40 s. The sensor was equilibrated in a buffer for 60 s, and the p40-His immobilized on the sensor bound to the antibody at a concentration of 5-0.31 nM (two-fold dilution) for 120 s, and then the protein dissociated in the buffer for 300 s. The sensor was refreshed with 10 mM glycine solution (pH=1.5). The detection temperature was 37° C., the detection frequency was 0.3 Hz, and the sample plate shaking rate was 500 rpm. The data were analyzed by 1:1 model fitting to obtain affinity constants.

[4] = biological target: T3, Human IL12 (His Tag) (human, UniProt P29459 23-219; P29460 23-328); assay: FACS competition, IL12-His (40 nM mixed 1:1) on 293T-IL-12Rβ1&IL-23R cells
T3 construct: Bought His-tagged heterodimer
T3 sequence (looked up) 1: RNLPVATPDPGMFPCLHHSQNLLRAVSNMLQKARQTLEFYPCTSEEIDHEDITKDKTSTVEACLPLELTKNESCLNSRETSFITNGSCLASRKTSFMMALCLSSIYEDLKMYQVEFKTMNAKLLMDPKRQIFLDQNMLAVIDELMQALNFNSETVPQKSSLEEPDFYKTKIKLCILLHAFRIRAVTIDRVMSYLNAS
T3 sequence (looked up) 2: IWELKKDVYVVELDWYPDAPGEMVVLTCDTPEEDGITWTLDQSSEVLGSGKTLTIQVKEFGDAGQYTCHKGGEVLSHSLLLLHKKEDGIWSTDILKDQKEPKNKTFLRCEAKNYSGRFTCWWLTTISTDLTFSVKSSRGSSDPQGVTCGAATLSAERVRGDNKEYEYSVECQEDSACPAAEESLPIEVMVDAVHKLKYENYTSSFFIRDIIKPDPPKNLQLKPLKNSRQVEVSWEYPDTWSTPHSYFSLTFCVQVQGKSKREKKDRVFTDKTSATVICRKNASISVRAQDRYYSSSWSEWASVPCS
Procedure: 200 μL of 1% PBSA was added into each sample, and the mixture was centrifuged at 1200 rpm for 5 min to discard the supernatant. According to experiment design, correspondingly diluted antibody (highest final concentration of 60 μg/mL, 3-fold dilution, 8 concentrations in total) and IL12-His (Sino Biological, Cat. No.: CT-050-H08H-20) (40 nM) were mixed at a ratio of 1:1, and a blank control was set. The mixture of antibody and IL12 was incubated on ice for 30 min and then added to the cell precipitate at 100 μL/sample. The resulting mixture was well mixed and incubated on ice for 60 min 200 μL of 1% PBSA was added, and the mixture was centrifuged at 1200 rpm for 5 min to discard the supernatant, and then washed twice. THETM His tag antibody (FITC) (Genscript, Cat. No.: A01620) was diluted at a ratio of 1:500 and added to each tube at 100 μL. The mixture was well mixed and incubated on ice for 40 min in the absence of light. 200 μL of 1% PBSA was added, and the mixture was centrifuged at 1200 rpm for 5 min to discard the supernatant, and then washed twice. 1% PBSA was added at 200 μL/tube, and the cells were resuspended and transferred to a flow cytometry tube for testing.

B1: H8L15 (antibody, human IgG1, kappa, V domains shown)
VH: EVQLVQSGAEVKKPGESLKISCQSSGYTFTSYWIGWVRQMPGQGLEWIGIMSPVDSDIRYNPMFRGQVTMSVDKSSSTAYLQWSSLKASDTAMYYCARRRPGQGYFDFWGQGTMVTVSS
VL: EIVLTQSPATLSASPGERATISCRASQSVGTWVAWYQQKPGQAPRSLIYAASNLQSGIPARFSGSGSGTDFTLTISSLEPEDFAVYYCQQYNIYPYTFGQGTRLEIKR
notes: human IgG1 (P01857) / kappa (P01834) constant regions; also called anti-human IL-12/IL-23 p40 antibody H8L15; H8L15H1L1
- EC50 [1]: 0.894 µg/mL
- EC50 [2]: 0.059 nM
- Kd [3]: 0.0609 nM
- S E (kon) [3]: 213000 M⁻¹ s⁻¹
- S E(kdis) [3]: 0.000137 s⁻¹
- koff [3]: 0.00018 s⁻¹
- kon [3]: 2.95e+06 M⁻¹ s⁻¹
- EC50 [4]: 1.46 µg/mL

Source: US20220298235A1 (AKESO BIOPHARMA, published 2022)
